# From patent US20260209320A1 (ALCHEMAB THERAPEUTICS, published 2026)
# T1: Peptide 6 (human)
# T1 peptide: QQPPPPPPPPPPPQL
# T2: Peptide 14 (human, cyno)
# T2 peptide: PQPQPPPPPPPPPPG
# T3: Peptide 15 (human, cyno)
# T3 peptide: QPQPPPPPPPPPPGP
# T4: Peptide 20 (cyno)
# T4 peptide: QAQPMLPQPQPPPPP
# T5: Epitope 1 (human, cyno)
# T5 peptide: QQQQPPPPPPPPPPP
# T6: Peptide 1 (human, cyno)
# T6 peptide: QQQQQQQQPPPPPPP
# T7: Peptide 2 (human, cyno)
# T7 peptide: QQQQQQQPPPPPPPP
# T8: Peptide 3 (human, cyno)
# T8 peptide: QQQQQQPPPPPPPPP
# T9: Peptide 4 (human, cyno)
# T9 peptide: QQQQQPPPPPPPPPP
# T10: Peptide 18 (cyno)
# T10 peptide: QQQPPPPPPPPPPPP
# T11: Peptide 21 (cyno)
# T11 peptide: AQPMLPQPQPPPPPP
# T12: Peptide 24 (cyno)
# T12 peptide: QQQQQQQQQPPPPPP
# T13: Peptide 25 (cyno)
# T13 peptide: QQPPPPPPPPPPPPQ
# T14: Peptide 26 (cyno)
# T14 construct: the array is said to hold 15-mers
# T14 peptide: QPPPPPPPPPPPPQL
# T15: Peptide 28 (cyno)
# T15 peptide: QPMLPQPQPPPPPPP
# T16: Peptide 29 (cyno)
# T16 peptide: PMLPQPQPPPPPPPP
# T17: Peptide 30 (cyno)
# T17 peptide: MLPQPQPPPPPPPPP
# T18: Peptide 31 (cyno)
# T18 peptide: LPQPQPPPPPPPPPP
# T19: Peptide 36 (mouse)
# T19 peptide: QPPPQAPPPPPPPPP
# T20: Peptide 37 (mouse)
# T20 peptide: PPPQAPPPPPPPPPP
# T21: Peptide 39 (mouse)
# T21 peptide: PQAPPPPPPPPPPQP
# T22: Peptide 41 (mouse)
# T22 peptide: PPQPPPQGQPPPPPP
# T23: Peptide 23 (cyno)
# T23 peptide: QQQQQQQQQQPPPPP
# B1: ATL_0005335 (antibody, V domains shown)
# VH: EVQLVESGGGLVKPGGSLRLSCAASGFTFNKAWMNWVRQAPGKGLEWVGRIKSGIDGGTTDYAAPVQGRFTISRDDSKNTVYLQMNSLNTEDTAVYYCIPPPYYYYYGLDVWGQGTTVTVSS
# VL: QSALTQPASVSGSPGQSITISCTGTSSDIGSYNLVSWYQQHPGNAPKPLIYEGSKRPSGVSARFSGSKSGNTASLTISGLQPEDEADYYCSSYAGFNTLVFGGGTKVTVL
# notes: human IgG1; also called ATL_5335
# B2: ATL_0005331 (antibody, V domains shown)
# VH: B1 VH
# VL: QSALTQPRSVSGSPGQSITISCTGTSSDVGSYNLVSWFQQHPGKAPKLIIYEVNKRPSGVPDRFSGSKSGNTASLTVSGLQAEDEADYYCGSYAGTNNVFGTGTKLTVL
# notes: human IgG1; also called ATL_5331; Human IgG1 ATL_0005331
# Key:
# [1] = biological target: T1, Peptide 6; assay: peptide microarray; Sp H; IgG 1 µg/ml
# [2] = biological target: T2, Peptide 14; assay: peptide microarray; Sp H; IgG 1 µg/ml
# [3] = biological target: T3, Peptide 15; assay: peptide microarray; Sp H; IgG 1 µg/ml
# [4] = biological target: T4, Peptide 20; assay: peptide microarray; Sp C1; IgG 1 µg/ml
# [5] = biological target: T5, Epitope 1; assay: peptide microarray; Sp C2; IgG 1 µg/ml
# [6] = biological target: T6, Peptide 1; assay: peptide microarray; Sp C2; IgG 1 µg/ml
# [7] = biological target: T7, Peptide 2; assay: peptide microarray; Sp C2; IgG 1 µg/ml
# [8] = biological target: T8, Peptide 3; assay: peptide microarray; Sp C2; IgG 1 µg/ml
# [9] = biological target: T9, Peptide 4; assay: peptide microarray; Sp C2; IgG 1 µg/ml
# [10] = biological target: T2, Peptide 14; assay: peptide microarray; Sp C2; IgG 1 µg/ml
# [11] = biological target: T3, Peptide 15; assay: peptide microarray; Sp C2; IgG 1 µg/ml
# [12] = biological target: T10, Peptide 18; assay: peptide microarray; Sp C2; IgG 1 µg/ml
# [13] = biological target: T11, Peptide 21; assay: peptide microarray; Sp C2; IgG 1 µg/ml
# [14] = biological target: T12, Peptide 24; assay: peptide microarray; Sp C2; IgG 1 µg/ml
# [15] = biological target: T13, Peptide 25; assay: peptide microarray; Sp C2; IgG 1 µg/ml
# [16] = biological target: T14, Peptide 26; assay: peptide microarray; Sp C2; IgG 1 µg/ml
# [17] = biological target: T15, Peptide 28; assay: peptide microarray; Sp C2; IgG 1 µg/ml
# [18] = biological target: T16, Peptide 29; assay: peptide microarray; Sp C2; IgG 1 µg/ml
# [19] = biological target: T17, Peptide 30; assay: peptide microarray; Sp C2; IgG 1 µg/ml
# [20] = biological target: T18, Peptide 31; assay: peptide microarray; Sp C2; IgG 1 µg/ml
# [21] = biological target: T1, Peptide 6; assay: peptide microarray; Sp H; IgG 10 µg/ml
# [22] = biological target: T2, Peptide 14; assay: peptide microarray; Sp H; IgG 10 µg/ml
# [23] = biological target: T3, Peptide 15; assay: peptide microarray; Sp H; IgG 10 µg/ml
# [24] = biological target: T19, Peptide 36; assay: peptide microarray; Sp M; IgG 10 µg/ml
# [25] = biological target: T20, Peptide 37; assay: peptide microarray; Sp M; IgG 10 µg/ml
# [26] = biological target: T21, Peptide 39; assay: peptide microarray; Sp M; IgG 10 µg/ml
# [27] = biological target: T4, Peptide 20; assay: peptide microarray; Sp C1; IgG 10 µg/ml
# [28] = biological target: T2, Peptide 14; assay: peptide microarray; Sp C2; IgG 10 µg/ml
# [29] = biological target: T3, Peptide 15; assay: peptide microarray; Sp C2; IgG 10 µg/ml
# [30] = biological target: T22, Peptide 41; assay: peptide microarray; Sp M; IgG 1 µg/ml
# [31] = biological target: T23, Peptide 23; assay: peptide microarray; Sp C2; IgG 1 µg/ml
# [32] = biological target: T22, Peptide 41; assay: peptide microarray; Sp M; IgG 10 µg/ml
# [33] = biological target: T23, Peptide 23; assay: peptide microarray; Sp C2; IgG 10 µg/ml
Binder,corrected fluorescence intensity [5],corrected fluorescence intensity [6],corrected fluorescence intensity [7],corrected fluorescence intensity [8],corrected fluorescence intensity [9],corrected fluorescence intensity [12],corrected fluorescence intensity [13],corrected fluorescence intensity [14],corrected fluorescence intensity [15],corrected fluorescence intensity [16],corrected fluorescence intensity [17],corrected fluorescence intensity [18],corrected fluorescence intensity [19],corrected fluorescence intensity [20],corrected fluorescence intensity [24],corrected fluorescence intensity [25],corrected fluorescence intensity [26],further results
B1,1400,990,1160,1220,1110,1270,168,562,507,128,421,523,772,1000,8300,7370,1880,corrected fluorescence intensity [1]: 0; corrected fluorescence intensity [2]: 335; corrected fluorescence intensity [3]: 234; corrected fluorescence intensity [4]: 187; corrected fluorescence intensity [10]: 0; corrected fluorescence intensity [11]: 0; corrected fluorescence intensity [21]: 176; corrected fluorescence intensity [22]: 1630; corrected fluorescence intensity [23]: 1130; corrected fluorescence intensity [27]: 1190; corrected fluorescence intensity [28]: 0; corrected fluorescence intensity [29]: 0
B2,379,259,462,548,546,474,154,146,206,141,152,156,256,294,2740,3160,842,corrected fluorescence intensity [30]: 55; corrected fluorescence intensity [31]: 0; corrected fluorescence intensity [32]: 197; corrected fluorescence intensity [33]: 148
